# Values quoted from earlier work in patent publication US6759420B1, “Arylalkanoyl derivatives, processes for their preparation, their use and pharmaceutical compositions containing them” (Aventis Pharma Deutschland GmbH, priority 1999, dated 2004).
# Legend:
# thrombin and factor Xa = details: via anti-thrombin III; cited from earlier work
# [1] = TAP at levels giving less than about two fold aPTT prolongation; heparin at doses causing a five fold increase in aPTT; cited from earlier work
# factor Xa = factor Xa (Homo sapiens, UniProt P00742); details: background statement; cited from earlier work
# Sequence of factor Xa (P00742 235-488 limits assumed): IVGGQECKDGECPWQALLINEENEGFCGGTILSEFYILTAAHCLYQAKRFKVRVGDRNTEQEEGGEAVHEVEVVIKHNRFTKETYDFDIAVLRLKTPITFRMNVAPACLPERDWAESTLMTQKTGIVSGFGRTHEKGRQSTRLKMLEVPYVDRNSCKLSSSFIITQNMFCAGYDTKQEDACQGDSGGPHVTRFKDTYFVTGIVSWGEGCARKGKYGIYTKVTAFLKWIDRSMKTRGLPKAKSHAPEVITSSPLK
# Sequence of factor Xa (P00742 41-179 limits assumed): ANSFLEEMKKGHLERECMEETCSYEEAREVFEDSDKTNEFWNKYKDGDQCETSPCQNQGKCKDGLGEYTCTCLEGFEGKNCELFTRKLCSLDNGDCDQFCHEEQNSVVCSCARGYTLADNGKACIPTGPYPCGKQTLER
# [2] = recombinantly-produced inhibitor, cited from earlier work; for bleeding time compared to other anticoagulants: animal model systems; for clotting in thromboplastin-induced, ligated jugular vein model of deep vein thrombosis: animal model
# [3] = subcutaneous; cited from earlier work
Molecule,thrombin inactivated faster than factor Xa (thrombin and factor Xa),"""high-shear"" arterial thrombosis and ""reduced flow"" caused by polyester (DACRON) graft [1]",Ki (factor Xa),bleeding time compared to other anticoagulants [2],"clotting in thromboplastin-induced, ligated jugular vein model of deep vein thrombosis [2]",treatment in thromboplastin-induced model of disseminated intravascular coagulation [3]
heparin,approximately 100 times,did not prevent thrombosis,–,–,–,–
"tick anticoagulant peptide (YNRLCIKPRDWIDECDSNEGGERAYFRNGKGGCDSFWICPEDHTGADYYSSYRDCFNACI; UniProt P17726 1-60, looked up) [TAP, reference compound]",–,effectively prevents,~0.5 nM,decrease bleeding time,prevent clotting,–
"antistasin (protein, UniProt P15358 18-136, looked up) Antistasin: QGPFGPGCEEAGCPEGSACNIITDRCTCSGVRCRMHCPHGFQRSRYGCEFCKCRLEPMKATCDISECPEGMMCSRLTNKCDCKIDINCRKTCPNGLKRDKLGCEYCECRPKRKLIPRLS",–,–,0.05 nM,decrease bleeding time,prevent clotting,effective treatment
